Experimental data published in the supplement of paper PMC12764529.
± gives the half width of the 95% confidence interval.

Key:
[1] = folding stability dG unfold (combined trypsin and chymotrypsin); higher = more stable
Procedure, shortened: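 Mini-proteins designed to be under 80 residues and free of cysteine were carried in a PA-tagged cDNA display construct and digested with trypsin and with chymotrypsin. Each protease was applied at 11 threefold-diluted concentrations, alongside a no-protease condition, before sequencing. K50 came from Bayesian fitting of the sequencing counts, and unfolding free energy was obtained by comparing it with a sequence-predicted unfolded-state K50 and a shared folded-state K50, for each protease separately or for both together. Designs were retained only if their AlphaFold2 dimer inter-PAE exceeded 15.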

[2] = folding stability dG unfold from trypsin proteolysis; higher = more stable
Experimental: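 Folding stability of de novo designed mini-proteins (<80 aa, no Cys; designed by TrROS, TrMRF, ProteinMPNN and the joint model) was measured by cDNA display proteolysis with trypsin and chymotrypsin. Each protease was used at 11 concentrations in a threefold dilution series plus a no-protease condition. K50 was inferred by Bayesian fitting of sequencing counts, and dG unfold was derived against a sequence-predicted unfolded-state K50 (Tsuboyama et al. method). Sequences shown include variable-length N-terminal GS-type padding (SAGGSAGG...) inside a display construct carrying a PA tag. Rows were kept only if the AF2 dimer inter-PAE was >15, to exclude likely homo-oligomers.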

Sequence	folding stability dG unfold [1] [kcal/mol]	folding stability dG unfold [2] [kcal/mol]
SAGGLEAKITEIDEDGYLRIEIVDPETGELIAEIRIKIELPPPPPVPETEEVLDEDGRKRTVTRLYDRSAGG [r13_9_TrROS_Hall]	-0.406 ± 0.23	0.214 ± 0.13
SAGGMDVKVEVKEVELPEAKVTITKITTPDGSTSTITYDPETGTADVTTTTPTSTTTTTLPKSEIKPLSAGG [r13_328_JUSTAS]	0.184 ± 0.31	0.846 ± 0.097
SAGGMGQEELENLPPEVVAGLLAEEALAEAERLGRPNEAVTVEVELGDVPLRIELTADGKIARIEAGSAGGS [r16_431_TrMRF]	< -1	-0.548 ± 0.14
SAGGMPIKPKVELEPLEDAYLVRVRFEAPDRPIEIRRAFASFPDAVREAEEIARFLEEAEIPSPEGGSAGGS [r16_24_TrMRF]	< -1	-0.682 ± 0.66
SAGGMRIWRVPETGVRAEVGTGGPWLVTITSSTTPVPEVRPVPPEEVEAFLRARFPGPVEEVERRPVPESAG [r5_519_JUSTAS]	-0.783 ± 0.19	-0.647 ± 0.34
SAGGMTEIEPDSEEKAEAEIEKVVEEEAEKALKSEKKNVTIKVDVKVVDPVTGKSKTYPVEKLVKLPSAGGS [r8_163_JUSTAS]	< -1	-1.4 ± 0.83
SAGGMTPEELKKVTIEKTVKDPSGNEYLEKSEVKEVEKKDEKYILKIPYTIKDKNGNTISNGTKTIPLSAGG [r13_172_JUSTAS]	< -1	-0.446 ± 0.5
SAGGMVVTSESREPDGTWTVRTVYRDPAGNLTITSSSTSSATVTRKDSAGTPSTAASTTNTYTSAALSAGGS [r8_270_JUSTAS]	-0.281 ± 0.15	0.216 ± 0.067
SAGGNPDWIPIQVPFEDPGDQDAMKKLVEELADIFLDEGIKPIEVEHTNPGHYSVWIPFDGKSIRIHSAGGS [r16_703_TrROS]	-0.888 ± 0.38	-0.37 ± 0.13
SAGGPKEIIKEIAEKYGITEIMPWDDMKNMPPENPNKIHIWPDPEGHYMVMIRAPNGNKKSIEFPIESAGGS [r16_686_TrROS]	< -1	-1.02 ± 0.3
SAGGPVVLKIEIEQKTDGKPQERELVIPVKWDPNGQVDADEIKDWVEEALPPGYKIEDIDVVPPGQPFSAGG [r13_504_TrROS]	< -1	-0.594 ± 0.22
SAGGRGQELTIPNGAPIEDIEELAKKDPDYQVKITEIKMQKPKKDPNGKKRPVPMWMKITLYPAGEKSAGGS [r8_172_TrROS]	< -1	0.116 ± 0.27
SAGGRPTMTAEEAAIRLIKELGIPGVKDIKEVVAVVRGGDPDNKPEKGSAILIKAEVPAEEVERLKKESAGG [r13_552_TrMRF]	-0.299 ± 0.11	0.221 ± 0.045
SAGGSAETYPVTVVVPLPPGGRELPVEELEDLVRETLANVPDLPDVKVEVTLLEPEGRALVRVEFPSAGGSA [r15_1029_TrMRF]	-0.594 ± 0.16	0.0434 ± 0.12
SAGGSAFKELLKEIKEQLQQAPPGEQVEVPIPFPDGYPLRIEINPDENKIEVEYPNGEEEEFDIPPSAGGSA [r15_977_TrROS]	< -1	0.133 ± 0.19
SAGGSAGGEYKVYPVKGDLKEFFDEAYKENPGGVRIIDPDTDEVLDFPPDLSLDEFPGTFVVLGSAGGSAGG [r6_857_TrMRF]	< -1	-0.238 ± 0.13
SAGGSAGGGLSASDTVTFPDGTVVTVAPDATVTITVPAPPDAAGNLTSTVTRTVTVAPGTRVLLSAGGSAGG [r6_90_JUSTAS]	< -1	-0.907 ± 0.41
SAGGSAGGLVIRNPDTNELIELKPGEELTITVTVEAPPAEEETTTETETRTLTLTVRLPEEAEESAGGSAGG [r6_273_TrROS_Hall]	-0.0133 ± 0.21	0.156 ± 0.16
SAGGSAGGMKPTVEVRPVPPSARMVVTITLPGSGKKVTIPVPDAPAPEEPERVIEEALAYVKTSSAGGSAGG [r6_331_JUSTAS]	< -1	-0.714 ± 0.47
SAGGSAGGMPSDTPFTITKITSVTLNDGRGTTKAVVSYPDGSLVTISSSELERLTKENPNLNLVSAGGSAGG [r6_78_JUSTAS]	-0.0536 ± 0.13	0.384 ± 0.062
SAGGSAGGNVKIEVEPGPNGNYLIKIRMPNGTKVEHQFDSPEDAEERAKDFAEEFPPNAQVEIWSAGGSAGG [r6_464_TrROS]	< -1	-0.00876 ± 0.14
SAGGSAGGSAEVEIKVRPDDPIPPNLPIVLPDGKERDARVEAVLDPEDGTPVFKVYFDPRSDSAGGSAGGSA [r18_476_TrMRF]	0.0528 ± 0.29	0.771 ± 0.048
SAGGSAGGSAGATVLQQGTATPPDGTTVTFNYNITLPSDVLISVDKNPPNPDLVTKIEAGSAGGSAGGSAGG [r11_781_JUSTAS]	-0.197 ± 0.4	0.154 ± 0.029
